Data from paper PMC2712996.

Target: Rabbit skeletal muscle actin (F-actin) (rabbit) (UniProt P68135)
Assay: co-sedimentation

GST-Cno (aa 1,560–2,051) (domain or fragment)
percent pelleted with F-actin: 41%
